Measured values reported in the supplement of paper PMC10567573.

B1: FBXO33 (parent)
chain: RLRGLLRVLRGRPGAGSRRRGRMA

Variants of: B1
Assay: protein stability index of a GFP-peptide fusion (GPS, HEK-293T) (PSI 1-6); higher = more stable
Settings: c terminus: a fixed tail appended
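Note: lentivirally expressed fusions sorted by FACS into six bins by GFP to DsRed ratio, PSI derived from sequencing read proportions per bin multiplied by bin number.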

Protein stability index: each site, then its substitutions
R19: T 1.75
R10: A 1.96 | P 2.59 | N 1.72 | C 2.99 | S 1.93 | I 2.25
R22: I 2.78 | W 1.65 | C 2.09 | M 2.25 | Y 1.7 | H 2.33 | S 1.99 | N 1.77 | K 1.76
S17: F 2.58 | Y 2.52 | A 1.75 | K 2.01 | G 1.92 | L 2.86 | E 2.36 | T 3.32
G11: N 2.47 | P 2.23 | H 1.92 | T 2.23 | C 1.64 | E 1.83 | I 2.77
G4: H 1.29 | R 2.06 | E 2.08 | L 2.2 | P 2.23 | C 1.45 | D 1.88
M23: P 1.58 | T 2.44 | N 2.02 | V 1.97 | H 2.42 | L 2.89
P13: Q 2.34 | H 1.77 | K 3.26 | C 2.09 | S 3.48 | D 2.01 | F 2.1 | V 2.68 | I 1.6
L9: Q 3.39 | W 2.83 | F 3.09 | N 3.72 | Y 2.73 | K 3.26 | E 3.75 | V 1.92 | T 4
R20: M 2.24 | C 1.72 | V 2.39 | Q 1.56 | E 2.29 | H 1.23 | F 1.13 | A 4.73
R12: Q 2.17 | W 1.79 | L 1.66 | S 2.19 | G 2.53 | T 2.03 | A 3.08 | D 2.31 | I 1.06
R7: L 2.56 | E 2.04 | G 2.86 | N 2.35 | Y 2.41 | I 2.17 | W 1.69 | T 2.05 | S 2.83
A24: D 1.04 | L 1.64 | R 2.63 | F 2.73 | E 2.54 | P 3.3 | I 1.46 | Y 2.27 | W 2.42 | Q 2.74
V8: R 2.54 | N 2.01 | S 1.93 | T 1.81 | I 2.84 | P 4.41 | H 2.1 | K 1.91 | D 2.47 | W 1.87 | F 2.83 | Y 2.64 | C 2.06
G16: S 1.5 | L 1.44 | N 2.57 | E 2.94 | P 2.06 | F 1.79 | Q 1.65 | H 1.83 | Y 1.86 | I 1.01 | T 2.96
R1: D 2.92 | W 1.69 | A 1.7 | F 1.53 | L 1.59 | Q 2.02 | S 1.75 | N 2.01 | C 1.2 | G 1.84
R3: V 1.02 | M 1.54 | T 2.23 | Q 2.21 | D 2.67 | K 2.83
L6: E 2.75 | K 2.73 | G 4.8 | D 5.1 | I 2.18 | C 2.07 | T 4.48 | A 3.57 | V 2.77 | R 4.41
L2: P 4.19 | M 3.22 | W 3.3 | H 4.34 | K 3.56 | Q 5.05 | E 3.99 | F 2.1
R18: F 1 | H 1.59 | Q 2.83 | Y 1.95 | P 1.08 | V 1.26 | E 1.99 | G 1.16 | C 1.8 | I 1.72 | L 1.15
